Laboratory results from patent publication US20260242735A1 (UNIVERSIT T BASEL, published 2026).

Columns and labels:
human CD33 W22T = human CD33 W22T (human, UniProt P20138 18-364); test: flow cytometry, transfected cells
human CD33 W22P = human CD33 W22P (human, UniProt P20138 18-364); test: flow cytometry, transfected cells
human CD33 W22E = human CD33 W22E (human, UniProt P20138 18-364); test: flow cytometry, transfected cells
human CD33 W22R = human CD33 W22R (human, UniProt P20138 18-364); test: flow cytometry, transfected cells
Sequence of human CD33 W22R (P20138 18-364 W22R limits assumed): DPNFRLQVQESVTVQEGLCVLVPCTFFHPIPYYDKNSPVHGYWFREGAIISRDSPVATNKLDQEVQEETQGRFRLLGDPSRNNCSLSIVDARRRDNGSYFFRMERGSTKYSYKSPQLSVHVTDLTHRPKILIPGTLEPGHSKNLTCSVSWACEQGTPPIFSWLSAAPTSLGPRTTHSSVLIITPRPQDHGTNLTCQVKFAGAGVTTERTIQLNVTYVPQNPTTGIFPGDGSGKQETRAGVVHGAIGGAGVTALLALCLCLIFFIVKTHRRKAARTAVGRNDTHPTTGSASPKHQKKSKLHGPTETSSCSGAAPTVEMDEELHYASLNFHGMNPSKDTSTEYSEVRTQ

[1] = biological target: T1, human CD33 extracellular region, wild type (human, UniProt P20138 18-259); test: BLI Octet, IgG captured on AHC, CD33 analyte;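 also: CD33 variants and wild type run as analyte at 5, 50 and 500 nM, 700 s association then 1200 s dissociation, buffer-only reference subtracted, global 1:1 fit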
T1 construct: also called WT; CD33 wt
T1 sequence (P20138 other isoform, or with tags, fused parts or gaps): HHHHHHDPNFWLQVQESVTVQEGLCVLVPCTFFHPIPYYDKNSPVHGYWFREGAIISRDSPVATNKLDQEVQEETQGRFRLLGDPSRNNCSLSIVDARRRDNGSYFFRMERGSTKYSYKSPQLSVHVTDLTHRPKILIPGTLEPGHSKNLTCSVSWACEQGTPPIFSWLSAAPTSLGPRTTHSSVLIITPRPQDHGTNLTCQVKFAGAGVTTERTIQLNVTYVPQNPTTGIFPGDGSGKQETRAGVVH

[2] = biological target: human CD33 extracellular region N20E (human, UniProt P20138 21-259); test: BLI Octet, IgG captured on AHC, CD33 analyte;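 also: CD33 variants and wild type run as analyte at 5, 50 and 500 nM, 700 s association then 1200 s dissociation, buffer-only reference subtracted, global 1:1 fit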
Sequence of human CD33 extracellular region N20E (P20138 other isoform, or with tags, fused parts or gaps N20E N20E): as the sequence (P20138 other isoform, or with tags, fused parts or gaps) above, with N9E counted along it

[3] = biological target: human CD33 extracellular region F21V (human, UniProt P20138 22-259); test: BLI Octet, IgG captured on AHC, CD33 analyte;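 also: CD33 variants and wild type run as analyte at 5, 50 and 500 nM, 700 s association then 1200 s dissociation, buffer-only reference subtracted, global 1:1 fit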
Sequence of human CD33 extracellular region F21V (P20138 other isoform, or with tags, fused parts or gaps F21V F21V): as the sequence (P20138 other isoform, or with tags, fused parts or gaps) above, with F10V counted along it

[4] = biological target: human CD33 extracellular region F21I (human, UniProt P20138 22-259); test: BLI Octet, IgG captured on AHC, CD33 analyte;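 also: CD33 variants and wild type run as analyte at 5, 50 and 500 nM, 700 s association then 1200 s dissociation, buffer-only reference subtracted, global 1:1 fit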
Sequence of human CD33 extracellular region F21I (P20138 other isoform, or with tags, fused parts or gaps F21I F21I): as the sequence (P20138 other isoform, or with tags, fused parts or gaps) above, with F10I counted along it

[5] = biological target: human CD33 extracellular region F21S (human, UniProt P20138 22-259); test: BLI Octet, IgG captured on AHC, CD33 analyte
Sequence of human CD33 extracellular region F21S (P20138 other isoform, or with tags, fused parts or gaps F21S F21S): as the sequence (P20138 other isoform, or with tags, fused parts or gaps) above, with F10S counted along it

[6] = biological target: human CD33 extracellular region F21H (human, UniProt P20138 22-259); test: BLI Octet, IgG captured on AHC, CD33 analyte
Sequence of human CD33 extracellular region F21H (P20138 other isoform, or with tags, fused parts or gaps F21H F21H): as the sequence (P20138 other isoform, or with tags, fused parts or gaps) above, with F10H counted along it

[7] = biological target: human CD33 extracellular region F44P (human, UniProt P20138 18-259); test: BLI Octet, IgG captured on AHC, CD33 analyte
Sequence of human CD33 extracellular region F44P (P20138 other isoform, or with tags, fused parts or gaps F44P F44P): as the sequence (P20138 other isoform, or with tags, fused parts or gaps) above, with F33P counted along it

[8] = biological target: human CD33 extracellular region F44S (human, UniProt P20138 18-259); test: BLI Octet, IgG captured on AHC, CD33 analyte
Sequence of human CD33 extracellular region F44S (P20138 other isoform, or with tags, fused parts or gaps F44S F44S): as the sequence (P20138 other isoform, or with tags, fused parts or gaps) above, with F33S counted along it

[9] = biological target: human CD33 extracellular region P48D (human, UniProt P20138 18-259); test: BLI Octet, IgG captured on AHC, CD33 analyte
Sequence of human CD33 extracellular region P48D (P20138 other isoform, or with tags, fused parts or gaps P48D P48D): as the sequence (P20138 other isoform, or with tags, fused parts or gaps) above, with P37D counted along it

[10] = biological target: human CD33 extracellular region P48S (human, UniProt P20138 18-259); test: BLI Octet, IgG captured on AHC, CD33 analyte
Sequence of human CD33 extracellular region P48S (P20138 other isoform, or with tags, fused parts or gaps P48S P48S): as the sequence (P20138 other isoform, or with tags, fused parts or gaps) above, with P37S counted along it

[11] = biological target: human CD33 extracellular region Y50K (human, UniProt P20138 18-259); test: BLI Octet, IgG captured on AHC, CD33 analyte
Sequence of human CD33 extracellular region Y50K (P20138 other isoform, or with tags, fused parts or gaps Y50K Y50K): as the sequence (P20138 other isoform, or with tags, fused parts or gaps) above, with Y39K counted along it

[12] = biological target: human CD33 extracellular region Y50H (human, UniProt P20138 18-259); test: BLI Octet, IgG captured on AHC, CD33 analyte
Sequence of human CD33 extracellular region Y50H (P20138 other isoform, or with tags, fused parts or gaps Y50H Y50H): as the sequence (P20138 other isoform, or with tags, fused parts or gaps) above, with Y39H counted along it

[13] = biological target: human CD33 extracellular region Y50H_Y49H (human, UniProt P20138 18-259); test: BLI Octet, IgG captured on AHC, CD33 analyte
Sequence of human CD33 extracellular region Y50H_Y49H (P20138 other isoform, or with tags, fused parts or gaps Y50H Y49H Y50H Y49H): as the sequence (P20138 other isoform, or with tags, fused parts or gaps) above, with Y38H, Y39H counted along it

[14] = biological target: human CD33 extracellular region N100Q (human, UniProt P20138 18-259); test: BLI Octet, IgG captured on AHC, CD33 analyte
Sequence of human CD33 extracellular region N100Q (P20138 other isoform, or with tags, fused parts or gaps N100Q N100Q): as the sequence (P20138 other isoform, or with tags, fused parts or gaps) above, with N89Q counted along it

Sequence of human CD33 W22T (P20138 18-364 W22T limits assumed): as the sequence (P20138 18-364 W22R limits assumed) above, with R5T counted along it
Sequence of human CD33 W22E (P20138 18-364 W22E limits assumed): as the sequence (P20138 18-364 W22R limits assumed) above, with R5E counted along it
Sequence of human CD33 W22P (P20138 18-364 W22P limits assumed): as the sequence (P20138 18-364 W22R limits assumed) above, with R5P counted along it

B1: Refmab #3 (antibody, human IgG1, V domains shown)
VH: QVQLVQSGAEVKKPGSSVKVSCKASGYTFTDYNMHWVRQAPGQGLEWIGYIYPYNGGTGYNQKFKSKATITADESTNTAYMELSSLRSEDTAVYYCARGRPAMDYWGQGTLVTVSS
VL: DIQMTQSPSSLSASVGDRVTITCRASESVDNYGISFMNWFQQKPGKAPKLLIYAASNQGSGVPSRFSGSGSGTDFTLTISSLQPDDFATYYCQQSKEVPWTFGQGTKVEIK
- binding result (human CD33 W22T): no binding (tested: below 20%)
- binding result (human CD33 W22P): no binding (tested: below 20%)
- binding result (human CD33 W22E): no binding (tested: below 20%)
- binding result (human CD33 W22R): no binding (tested: below 20%)
- % WT binding [1]: 100%
- % WT binding [2]: 6.04%
- % WT binding [3]: 0%
- % WT binding [4]: 0%
- % WT binding [5]: 0%
- % WT binding [6]: 0%
- % WT binding [7]: 0%
- % WT binding [8]: 39%
- % WT binding [9]: 76.4%
- % WT binding [10]: 74%
- % WT binding [11]: 122%
- % WT binding [12]: 111%
- % WT binding [13]: 84.4%
- % WT binding [14]: 124%

B2: Refmab #1 (antibody, human IgG1, V domains shown)
VH: EVQLVQSGAEVKKPGSSVKVSCKASGYTITDSNIHWVRQAPGQSLEWIGYIYPYNGGTDYNQKFKNRATLTVDNPTNTAYMELSSLRSEDTAFYYCVNGNPWLAYWGQGTLVTVSS
VL: DIQLTQSPSTLSASVGDRVTITCRASESLDNYGIRFLTWFQQKPGKAPKLLMYAASNQGSGVPSRFSGSGSGTEFTLTISSLQPDDFATYYCQQTKEVPWSFGQGTKVEVK
notes: also called hP67.6; Absolute Antibody Cat. No. Ab00283-10.0
- binding result (human CD33 W22T): no binding (tested: below 20%)
- binding result (human CD33 W22P): no binding (tested: below 20%)
- binding result (human CD33 W22E): no binding (tested: below 20%)
- binding result (human CD33 W22R): no binding (tested: below 20%)
- % WT binding [1]: 100%
- % WT binding [2]: 3.46%
- % WT binding [3]: 0%
- % WT binding [4]: 0%
- % WT binding [5]: 0%
- % WT binding [6]: 0%
- % WT binding [7]: 0%
- % WT binding [8]: 63.9%
- % WT binding [9]: 71.9%
- % WT binding [10]: 79.5%
- % WT binding [11]: 101%
- % WT binding [12]: 104%
- % WT binding [13]: 76.4%
- % WT binding [14]: 107%

B3: Refmab #6 (antibody, human IgG1, V domains shown)
VH: QVQLQQPGAEVVKPGASVKMSCKASGYTFTSYYIHWIKQTPGQGLEWVGVIYPGNDDISYNQKFQGKATLTADKSSTTAYMQLSSLTSEDSAVYYCAREVRLRYFDVWGQGTTVTVSS
VL: EIVLTQSPGSLAVSPGERVTMSCKSSQSVFFSSSQKNYLAWYQQIPGQSPRLLIYWASTRESGVPDRFTGSGSGTDFTLTISSVQPEDLAIYYCHQYLSSRTFGQGTKLEIK
- binding result (human CD33 W22T): no binding (tested: below 20%)
- binding result (human CD33 W22P): no binding (tested: below 20%)
- binding result (human CD33 W22E): no binding (tested: below 20%)
- binding result (human CD33 W22R): no binding (tested: below 20%)
